# Source: paper PMC3507735, “Cloning, expression and characterization of an aryl-alcohol dehydrogenase from the white-rot fungus Phanerochaete chrysosporium strain BKM-F-1767” (BMC Microbiology, 2012)
# How the values were obtained:
# [1] = system: COc1ccc(C=O)cc1O; assay: purified protein; details: reduction, 0.3 mM NADPH, 50 mM MES pH 6.1, 30°C
# [2] = biological target: T1, Pc Aad1p (recombinant aryl-alcohol dehydrogenase, AAD1) (Phanerodontia chrysosporium, UniProt Q01752); assay: spectrophotometric NADPH oxidation at […] nm, fit to uncompetitive substrate inhibition equation; format: biochemical; design: full-length ORF (1155 bp) in pGS-21a; N-terminal His6-GST and C-terminal His6 tags kept; E. coli BL21 Star(DE3); details: substrate inhibition constant (uncompetitive); 0.3 mM NADPH, 50 mM MES pH 6.1, 30°C
# T1 sequence (Q01752 1-385): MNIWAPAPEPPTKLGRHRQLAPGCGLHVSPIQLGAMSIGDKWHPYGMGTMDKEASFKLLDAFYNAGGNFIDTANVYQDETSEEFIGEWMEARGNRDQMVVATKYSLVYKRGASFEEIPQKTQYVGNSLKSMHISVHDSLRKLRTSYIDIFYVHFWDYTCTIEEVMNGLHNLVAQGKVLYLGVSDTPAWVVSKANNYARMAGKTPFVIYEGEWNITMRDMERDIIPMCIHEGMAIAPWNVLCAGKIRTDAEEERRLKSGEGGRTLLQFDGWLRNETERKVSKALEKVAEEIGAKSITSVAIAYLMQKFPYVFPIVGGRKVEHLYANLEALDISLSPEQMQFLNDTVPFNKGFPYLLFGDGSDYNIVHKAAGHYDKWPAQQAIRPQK
# [3] = biological target: T1, Pc Aad1p (recombinant aryl-alcohol dehydrogenase, AAD1); assay: spectrophotometric NADPH oxidation at […] nm, non-linear fit; details: read-out: KMμM; reduction; 0.3 mM NADPH, 50 mM MES pH 6.1, 30°C
# [4] = substrate: COc1ccc(C=O)cc1OC; assay: purified protein; details: reduction, 0.3 mM NADPH, 50 mM MES pH 6.1, 30°C
# [5] = substrate: O=CCc1ccccc1; assay: purified protein; details: reduction, 0.3 mM NADPH, 50 mM MES pH 6.1, 30°C
# [6] = substrate: COc1cc(C=O)cc(OC)c1; assay: purified protein; details: reduction, 0.3 mM NADPH, 50 mM MES pH 6.1, 30°C
# [7] = substrate: O=Cc1ccccc1; assay: purified protein; details: reduction, 0.3 mM NADPH, 50 mM MES pH 6.1, 30°C
# [8] = substrate: COc1cc(C=O)ccc1O; assay: purified protein; details: reduction, 0.3 mM NADPH, 50 mM MES pH 6.1, 30°C
# [9] = substrate: O=Cc1ccc(CO)o1; assay: purified protein; details: reduction, 0.3 mM NADPH, 50 mM MES pH 6.1, 30°C
# [10] = substrate: COc1ccc(CO)cc1OC; assay: purified protein; format: biochemical, Phanerodontia chrysosporium; details: oxidation, 0.3 mM NADP+, 100 mM Glycine-KOH pH 10.3, 30°C
# [11] = substrate: NC(=O)C1=CN([C@@H]2O[C@H](COP(=O)(O)OP(=O)(O)OC[C@H]3O[C@@H](n4cnc5c(N)ncnc54)[C@H](OP(=O)(O)O)[C@@H]3O)[C@@H](O)[C@H]2O)C=CC1; assay: purified protein; format: biochemical, Phanerodontia chrysosporium; details: 0.2 mM 3,4-dimethoxybenzaldehyde, 50 mM MES pH 6.1, 30°C, varied: cofactor
# [12] = substrate: NC(=O)C1=CN([C@@H]2O[C@H](COP(=O)(O)OP(=O)(O)OC[C@H]3O[C@@H](n4cnc5c(N)ncnc54)[C@H](O)[C@@H]3O)[C@@H](O)[C@H]2O)C=CC1; assay: purified protein; format: biochemical, Phanerodontia chrysosporium; details: 0.2 mM 3,4-dimethoxybenzaldehyde, 50 mM MES pH 6.1, 30°C, varied: cofactor
# [13] = substrate: COc1cc(CO)ccc1O; assay: purified protein; format: biochemical, Phanerodontia chrysosporium; details: oxidation, 0.3 mM NADP+, 100 mM Glycine-KOH pH 10.3, 30°C
# [14] = substrate: NC(=O)c1ccc[n+]([C@@H]2O[C@H](COP(=O)(O)OP(=O)(O)OC[C@H]3O[C@@H](n4cnc5c(N)ncnc54)[C@H](OP(=O)(O)O)[C@@H]3O)[C@@H](O)[C@H]2O)c1; assay: purified protein; format: biochemical, Phanerodontia chrysosporium; details: 10 mM 3,4-dimethoxybenzyl alcohol, 100 mM Glycine-KOH pH 10.3, 30°C, varied: cofactor
molecule,measurement,setting,value
"Pc Aad1p (recombinant aryl-alcohol dehydrogenase, AAD1) (Phanerodontia chrysosporium)",Km,[1],1400 ± 900 µM
same,kcat,[1],3.83 ± 1.83 s⁻¹
same,kcat/Km,[1],2670 M⁻¹ s⁻¹
COc1ccc(C=O)cc1O [3-Hydroxy-4-methoxybenzaldehyde],KiμM,[2],2300 ± 1800 µM
O=Cc1ccccc1 [Benzaldehyde],KiμM,[2],81000 ± 44000 µM
"COc1ccc(C=O)cc1OC [3,4-Dimethoxybenzaldehyde]",KiμM,[2],3400 ± 1100 µM
O=C/C=C/c1ccccc1 [trans-Cinnamaldehyde],Km,[3],3400 ± 1300 µM
same,KiμM,[2],3500 ± 1600 µM
COc1cc(C=O)ccc1O [4-Hydroxy-3-methoxybenzaldehyde],KiμM,[2],5100 ± 2300 µM
"COc1cc(C=O)cc(OC)c1 [3,5-Dimethoxybenzaldehyde]",KiμM,[2],2100 ± 600 µM
COc1ccc(C=O)cc1 [4-Methoxybenzaldehyde],Km,[3],90 ± 10 µM
"Pc Aad1p (recombinant aryl-alcohol dehydrogenase, AAD1) (Phanerodontia chrysosporium) (protein, full-length ORF (1155 bp) in pGS-21a; N-terminal His6-GST and C-terminal His6 tags kept; E. coli BL21 Star(DE3)) MNIWAPAPEPPTKLGRHRQLAPGCGLHVSPIQLGAMSIGDKWHPYGMGTMDKEASFKLLDAFYNAGGNFIDTANVYQDETSEEFIGEWMEARGNRDQMVVATKYSLVYKRGASFEEIPQKTQYVGNSLKSMHISVHDSLRKLRTSYIDIFYVHFWDYTCTIEEVMNGLHNLVAQGKVLYLGVSDTPAWVVSKANNYARMAGKTPFVIYEGEWNITMRDMERDIIPMCIHEGMAIAPWNVLCAGKIRTDAEEERRLKSGEGGRTLLQFDGWLRNETERKVSKALEKVAEEIGAKSITSVAIAYLMQKFPYVFPIVGGRKVEHLYANLEALDISLSPEQMQFLNDTVPFNKGFPYLLFGDGSDYNIVHKAAGHYDKWPAQQAIRPQK",Km,[4],12 ± 2 µM
same,kcat,[4],8.83 ± 0.417 s⁻¹
same,kcat/Km,[4],733000 M⁻¹ s⁻¹
same,Km,[5],530 ± 90 µM
same,kcat,[5],11.2 ± 0.417 s⁻¹
same,kcat/Km,[5],21700 M⁻¹ s⁻¹
same,Km,[6],22 ± 4 µM
same,kcat,[6],9.83 ± 0.5 s⁻¹
same,kcat/Km,[6],450000 M⁻¹ s⁻¹
same,Km,[7],1700 ± 600 µM
same,kcat,[7],7.17 ± 0.833 s⁻¹
same,kcat/Km,[7],5000 M⁻¹ s⁻¹
same,Km,[8],1400 ± 600 µM
same,kcat,[8],3.33 ± 0.833 s⁻¹
same,kcat/Km,[8],2330 M⁻¹ s⁻¹
same,Km,[9],270 ± 40 µM
same,kcat,[9],2.93 ± 0.1 s⁻¹
same,kcat/Km,[9],10800 M⁻¹ s⁻¹
same,Km,[10],370 ± 50 µM
same,kcat,[10],2.55 ± 0.1 s⁻¹
same,kcat/Km,[10],6830 M⁻¹ s⁻¹
same,Km,[11],39 ± 5 µM
same,kcat,[11],11.3 ± 0.5 s⁻¹
same,kcat/Km,[11],283000 M⁻¹ s⁻¹
same,Km,[12],220 ± 130 µM
same,kcat,[12],2 ± 0.667 s⁻¹
same,kcat/Km,[12],10000 M⁻¹ s⁻¹
same,Km,[13],25000 ± 7000 µM
same,kcat,[13],4.33 ± 1 s⁻¹
same,kcat/Km,[13],167 M⁻¹ s⁻¹
same,Km,[14],38 ± 7 µM
same,kcat,[14],2.57 ± 0.12 s⁻¹
same,kcat/Km,[14],68300 M⁻¹ s⁻¹
